Results published in patent publication US20190177410A1.

Legend:
[1] = molecular target: full-length human APLNR (hAPLNR) (human) (UniProt P35414); test: FACS, secondary antibody alone on HEK293/CRE-luc/hAPLNR cells
[2] = molecular target: T1, full length cynomolgus APLNR (MfAPLNR) (cynomolgus (Macaca fascicularis)); test: FACS, secondary antibody alone on HEK293/CRE-luc/MfAPLNR cells
T1 sequence: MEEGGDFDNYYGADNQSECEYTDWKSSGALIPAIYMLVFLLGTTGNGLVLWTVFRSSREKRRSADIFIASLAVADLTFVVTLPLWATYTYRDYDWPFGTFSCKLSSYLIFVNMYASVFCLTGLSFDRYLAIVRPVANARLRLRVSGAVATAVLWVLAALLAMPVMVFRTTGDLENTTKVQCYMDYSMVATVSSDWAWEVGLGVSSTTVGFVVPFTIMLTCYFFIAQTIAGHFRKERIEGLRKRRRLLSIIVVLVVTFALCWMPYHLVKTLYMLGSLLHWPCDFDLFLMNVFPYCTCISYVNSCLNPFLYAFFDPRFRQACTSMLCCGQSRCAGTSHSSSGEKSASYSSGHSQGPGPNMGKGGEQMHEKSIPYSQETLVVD

[3] = molecular target: full-length human APLNR (hAPLNR) (human) (UniProt P35414); test: FACS, secondary antibody alone (4 ug/mL) on HEK293/CRE-luc/hAPLNR cells
[4] = molecular target: T1, full length cynomolgus APLNR (MfAPLNR) (cynomolgus (Macaca fascicularis)); test: FACS, secondary antibody alone (4 ug/mL) on HEK293/CRE-luc/MfAPLNR cells

Binding Ratio of Geom. Mean to Unstained Cells [1] [fold] | Binding Ratio of Geom. Mean to Unstained Cells [2] [fold] | Binding Ratio of Geom. Mean to Unstained Cells [3] [fold] | Binding Ratio of Geom. Mean to Unstained Cells [4] [fold] | Substance
2 | 2 | 2 | 2 | anti-human IgG antibody conjugated with Alexa 488 (secondary antibody alone)
– | – | 4 | 3 | anti-mouse IgG antibody conjugated with Alexa 647 (secondary antibody alone)
